From paper PMC1874613
Positions count from the first letter of the chain named. Where two headings read alike, the source gives them in different places.

How the values were obtained:
Snu13p [1] = target: T1, Snu13p (yeast, UniProt P39990 1-126); test: EMSA
T1 sequence: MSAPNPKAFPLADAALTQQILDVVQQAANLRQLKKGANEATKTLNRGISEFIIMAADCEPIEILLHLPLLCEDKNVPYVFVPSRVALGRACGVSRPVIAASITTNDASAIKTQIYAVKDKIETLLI

C-SBP2 [2] = target: T2, C-SBP2 (human, UniProt Q96T21 515-854); test: EMSA
T2 sequence: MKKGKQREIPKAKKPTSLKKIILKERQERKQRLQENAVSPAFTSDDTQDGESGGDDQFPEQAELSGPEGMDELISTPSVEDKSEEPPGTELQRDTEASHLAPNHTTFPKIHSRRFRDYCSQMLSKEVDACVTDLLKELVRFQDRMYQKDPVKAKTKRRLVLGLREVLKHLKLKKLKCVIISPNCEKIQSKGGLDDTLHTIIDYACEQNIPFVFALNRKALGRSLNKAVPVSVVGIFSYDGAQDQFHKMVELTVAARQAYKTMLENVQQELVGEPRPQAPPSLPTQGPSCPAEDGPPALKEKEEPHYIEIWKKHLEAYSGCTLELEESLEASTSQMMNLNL

C-SBP2 [3] = target: T2, C-SBP2; test: EMSA; remark: listed apart in the source
Snu13p [4] = target: T1, Snu13p; test: EMSA; remark: listed apart in the source
Snu13p [5] = target: T1, Snu13p; test: EMSA; remark: listed apart in the source
C-SBP2 [6] = target: T2, C-SBP2; test: EMSA; remark: listed apart in the source
C-SBP2 [7] = target: T2, C-SBP2; test: EMSA; remark: listed apart in the source
Snu13p [8] = target: T1, Snu13p; test: competition

B1: Se1:Ins (structured_RNA)
RNA: GGACCUUUGUACCCCAGAUGAUGGGCCUUCACUGGCCUUGAUGGGUACAAAUGGCAG
B1 showed a Kd (Snu13p [1]) of 25 nM and a Kd (C-SBP2 [2]) of 300 nM.

B2: Se3 (structured_RNA)
RNA: GGACCUUUGUACCCCAGAUGAUGCUUUAUCAGGCGGAUGGGUACAAAUGGCAG
B2: binds (C-SBP2 [3]).

B3: Se1 (G-C)5 to (G.G)5 (structured_RNA)
RNA: GGACCUUUGUACCCCAGAUGAUGGCUUCACUGGUUGAUGGGUACAAAUGGCAG
In the case of B3, the binding signal (Snu13p [4]) is reported as ~20 fold lower affinity than Se1.

B4: Se1 (structured_RNA)
RNA: B3 RNA with G33C
B4 showed a Kd (Snu13p [5]) of 35 nM and a Kd (C-SBP2 [6]) of 500 nM.

B5: Se2 (structured_RNA)
RNA: GGACCUUUGUACCCCAGAUGACGGCUCAUUUCGUGCUUGAUGGGUACAAAUGGCAG
B5: binds (C-SBP2 [3]).

B6: Se4 (structured_RNA)
RNA: GGACCUUUGUACCCCAGAUGAUAGUAAAGCGCGGCUUGAUGGGUACAAAUGGCAG
B6: binds (C-SBP2 [3]).

B7: Se5 (structured_RNA)
RNA: B6 RNA with A26G, A28G
B7: binds (C-SBP2 [3]).

B8: Se6 (structured_RNA)
RNA: B6 RNA with A28G
B8: binds (C-SBP2 [3]).

B9: Se1:Ins + loop (structured_RNA)
RNA: GGACCUUUGUACCCCAGUUUAUGAUGGAUCUUCACUGAUCUUGAUCCCCUGGGUACAAAUGGCAG
B9 was tested, and the binding signal (C-SBP2 [7]) was 4 fold higher affinity than Se1 and the binding result (Snu13p [8]) was “binds”.
